{
  "source": "patent CN113735970A",
  "about": "(INST MILITARY MEDICINE ACADEMY MILITARY SCIENCES PLA, dated 2021)",
  "binders": {"B1": {"name": "抗SARS-CoV-2全人源单克隆抗体ZWC6 (antibody, human IgG1, kappa, V domains shown)", "VH": "EVQLVESGGGVVQPGTSLRLSCAASGFSFSHYVMYWVRQAPGKGLDWVAIISFDGSSQYYADSVKGRFTISRDNSKDTLYLQMHSLRPEDTAVYYCAIHGGTYYYDKNILAWGQGTLVTVSS", "VL": "AIRMTQSPPTLSLSPGERATLSCRASQSVTNYLVWYQQKPGQAPRLLIYDTFNRATGIPARFSGSGSGTDFTLTISSLEPEDFAVYYCQQRSNWPPTFGQGTKVDIKR"}},
  "key": {"SARS-CoV-2 Delta株S-ECD蛋白": {"target": "SARS-CoV-2 Delta株S-ECD蛋白 (SARS-CoV-2 Delta株 (B.1.617.2), UniProt P0DTC2 14-1213)"}, "SARS-CoV-2 Alpha株S-ECD蛋白": {"target": "SARS-CoV-2 Alpha株S-ECD蛋白 (SARS-CoV-2 Alpha株 (B.1.1.7), UniProt P0DTC2 14-1213)"}, "SARS-CoV-2 Beta株S-ECD蛋白": {"target": "SARS-CoV-2 Beta株S-ECD蛋白 (SARS-CoV-2 Beta株 (B.1.351), UniProt P0DTC2 14-1213)"}, "SARS-CoV-2 Gamma株S-ECD蛋白": {"target": "SARS-CoV-2 Gamma株S-ECD蛋白 (SARS-CoV-2 Gamma株 (P.1), UniProt P0DTC2 14-1213)"}},
  "data": [
    {"binder": "B1", "values": [
      {"measurement": "Kd", "setting": "SARS-CoV-2 Delta株S-ECD蛋白", "value": 4.21, "unit": "nM"},
      {"measurement": "koff", "setting": "SARS-CoV-2 Delta株S-ECD蛋白", "value": 0.000305, "unit": "s⁻¹"},
      {"measurement": "kon", "setting": "SARS-CoV-2 Delta株S-ECD蛋白", "value": 72400, "unit": "M⁻¹ s⁻¹"},
      {"measurement": "Kd", "setting": "SARS-CoV-2 Alpha株S-ECD蛋白", "value": 0.938, "unit": "nM"},
      {"measurement": "koff", "setting": "SARS-CoV-2 Alpha株S-ECD蛋白", "value": 0.000164, "unit": "s⁻¹"},
      {"measurement": "kon", "setting": "SARS-CoV-2 Alpha株S-ECD蛋白", "value": 175000, "unit": "M⁻¹ s⁻¹"},
      {"measurement": "Kd", "setting": "SARS-CoV-2 Beta株S-ECD蛋白", "value": 0.658, "unit": "nM"},
      {"measurement": "koff", "setting": "SARS-CoV-2 Beta株S-ECD蛋白", "value": 0.000121, "unit": "s⁻¹"},
      {"measurement": "kon", "setting": "SARS-CoV-2 Beta株S-ECD蛋白", "value": 184000, "unit": "M⁻¹ s⁻¹"},
      {"measurement": "Kd", "setting": "SARS-CoV-2 Gamma株S-ECD蛋白", "value": 1.2, "unit": "nM"},
      {"measurement": "koff", "setting": "SARS-CoV-2 Gamma株S-ECD蛋白", "value": 0.000182, "unit": "s⁻¹"},
      {"measurement": "kon", "setting": "SARS-CoV-2 Gamma株S-ECD蛋白", "value": 151000, "unit": "M⁻¹ s⁻¹"}
    ]}
  ]
}
